From patent publication US11732048B2, “Anti-axl antagonistic antibodies” (BERGEN TEKNOLOGIOVERFØRING AS, priority 2016, dated 2023)
One block for each molecule: values may come before it.

What was measured:
[1] = molecular target: T1, human Axl (rhAxl-Fc chimera) (Homo sapiens, UniProt P30530); assay: Biacore kinetic analysis (surface plasmon resonance) on immobilised rhAxl-Fc; format: binding; details: rhAxl immobilized on Biacore sensor chip, 25° C., 1:1 Langmuir binding model
T1 construct: Soluble recombinant antigens corresponding to the extracellular domains of members of the human TAM receptor family; Fc; purchased R&D Systems 154-AL
Experimental: Kinetic analysis of murine MAb 10G5 interacting with rhAxl immobilized on the surface of the Biacore sensor chip. Overlay plots of sensograms for different antibody concentrations (0.3-166.7 nM for murine 10G5) are shown. The precise kinetic analysis was performed using BIA evaluation software and curve fitting according to 1:1 Langmuir binding model. […]
Affinity determination of anti-Axl antibody 10G5 was performed at 25° C. by surface plasmon resonance measurements using Biacore 3000 instrument (GE Healthcare). As a solid antigen-coated surface, a sensor chip CM5 with immobilized rhAxl-Fc chimera (R&D Systems, Cat. no. 154-AL) at density 190 RU was used.
For the kinetics measurements, different concentrations of anti-Axl antibodies (from 0.3 to 666.7 nM) in HBS-EP buffer (Biacore, Cat. no. BR-1001-88) were injected at flow rate of 30 μL/min with 3 min injection time followed by 5 min dissociation (buffer alone). After each cycle, the surface was regenerated by 30 sec injection of a regeneration solution (10 mM HCl, 1 M NaCl) at flow rate 50 μL/min.
The kinetic association (on-rate, kon) and dissociation (off-rate, koff) rates were calculated using BIAevaluation software and 1:1 Langmuir binding model. The equilibrium dissociation constant (KD) was calculated as the koff/kon ratio. The half-life (t1/2) of the formed antibody-antigen complexes was calculated as the ln 2/koff ratio. […]

[2] = system: Axl-positive cells (MDA-MB-231); assay: Flow cytometry binding to Axl-positive cells; parameters: species or system human
Experimental: Different concentrations of chimeric antibody was tested in flow cytometry for binding to triple-negative breast cancer cell line MDA-MB-231. The bound chimeric antibody was detected with APC-conjugated donkey F(ab′)2 fragments specific for either mouse IgG (H+L), 1:500 dilution, or human IgG (H+L), 1:300 dilution, respectively (both from Jackson ImmunoResearch). The cell staining was measured using Accuri C6 flow cytometer (BD Biosciences). MFI, geometric mean fluorescence intensity.
For flow cytometry, the adherent cells in culture were washed with PBS, detached by trypsin (0.25%) treatment for 1 min and hitting culture dish for full detachment. Trypsin was quenched by adding into the tissue flask the complete medium followed by washing the cells with PBS. […]
The purified chimeric antibodies (>95% purity) were analysed for binding to Axl-positive breast cancer cell line MDA-MB-231 in flow cytometry. […] The cell-bound antibodies were detected with APC-conjugated donkey anti-human or anti-mouse, respectively, IgG (H+L) F(ab′)2 fragments (Jackson ImmunoResearch). […]
For flow cytometry, the adherent cells in culture were washed with PBS, detached by treatment with trypsin (0.25%) for 1 min. […] The cell-bound antibodies were detected with APC-conjugated donkey anti-human IgG (H+L) F(ab′)2 fragments (Jackson ImmunoResearch Laboratories #709-136-149, 1:400 dilution). […]

Off-rate (koff) [1]: 0.000439 s⁻¹
On-rate (kon) [1]: 829000 M⁻¹ s⁻¹
B1: murine 10G5: mouse monoclonal anti-human Axl antibody from hybridoma WR-10G5-E5; VH SEQ ID NO: 28, VL SEQ ID NO: 29 (antibody, listed as Mus musculus, V domains shown)
VH: QVQLQQSGAELVRPGASVKLSCKASGYSFTDFYINWVRQRPGQGLEWIARIFPGGDNTYYNEKFKGKATLTAEESSSTAYIQLSSLTSEDSAVYFCARRGLYYAMDYWGQGISVTVSS
VL: DVLMTQTPLSLPVSLGDQASISCRSSQSLVHSNGIPYLHWYLQKPGQSPKLLIYRVSNRFSGVPDRFSGSGSGTDFTLKISRVEAEDLGVYFCSQGTHVPPTFGGGTKLEIK
modifications: (1)..(118) Mus musculus 10G5 VH domain; (1)..(112) Mus musculus 10G5 VL domain
Binding to Axl+ cells in flow cytometry (clone selection) ([2]; Example 1): specific binding

Off-rate (koff) [1]: 0.000169 s⁻¹
On-rate (kon) [1]: 1.64e+06 M⁻¹ s⁻¹
B2: c10G5: chimeric (mouse variable/human constant) IgG1 antibody with the 10G5 VH and VL (antibody, V domains shown)
VH: B1 VH
VL: B1 VL
Binding to Axl-positive MDA-MB-231 cells in flow cytometry ([2]; titration of antibody, APC-conjugated secondary): Dose-dependent binding
